Laboratory results: PMC7459404, “Structural insights into the enhanced carbapenemase efficiency of OXA‐655 compared to OXA‐10” (FEBS Open Bio, 2020)

Target: the molecule itself
Test: crystal structure; OXA-10 crystals (hanging drop, 4 °C, 20–23% PEG 3350, 0.2 M magnesium formate) soaked about 2 min with IPM; 1.89 Å, P212121, two chains in the asymmetric unit; dimer interface analysed with PISA

B1: OXA-10 class D β-lactamase (enzyme)
chain: GSITENTSWNKEFSAEAVNGVFVLCKSSSKSCATNDLARASKEYLPASTFKIPNAIIGLETGVIKNEHQVFKWDGKPRAMKQWERDLTLRGAIQVSAVPVFQQIAREVGEVRMQKYLKKFSYGNQNISGGIDKFWLEGQLRISAVNQVEFLESLYLNKLSASKENQLIVKEALVTEAAPEYLVHSKTGFSGVGTESNPGVAWWVGWVEKETEVYFFAFNMDIDNESKLPLRKSIPTKIMESEGIIGG
modifications: carboxylated lysine 70 (KCX70); S67 OG covalently bound to the ring-opened carbapenem (IPM or ETP, acyl-enzyme)
notes: Crystals were soaked with imipenem (6SKP) or ertapenem (6SKR); two chains (A, B) in the asymmetric unit; also called OXA-10_IPM; OXA-10_ETP
binding result: binds
